Measured values as given in patent US20120244144A1 (University of Texas, published 2012).
Residue numbers refer to the chain shown, from its start.

Legend:
Experiment in all cases: SPR, mAb 1B7 immobilised ~1000 RU
[1] = biological target: T1, PTx-S1-220 R39A (Bordetella pertussis strain Tohama I, UniProt P04977 36-255, R39A)
T1 sequence: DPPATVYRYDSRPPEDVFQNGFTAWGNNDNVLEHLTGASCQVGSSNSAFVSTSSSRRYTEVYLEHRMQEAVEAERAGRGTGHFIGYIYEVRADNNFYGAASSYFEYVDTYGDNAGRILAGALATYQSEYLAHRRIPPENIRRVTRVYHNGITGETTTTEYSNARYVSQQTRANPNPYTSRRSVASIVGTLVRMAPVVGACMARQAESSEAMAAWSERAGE

[2] = biological target: T2, PTx-S1-220 T158A (Bordetella pertussis strain Tohama I, UniProt P04977 36-255, T158A)
T2 sequence: T1 sequence with A38R, T157A

[3] = biological target: T3, PTx-S1-220 N176A (Bordetella pertussis strain Tohama I, UniProt P04977 36-255)
T3 chain: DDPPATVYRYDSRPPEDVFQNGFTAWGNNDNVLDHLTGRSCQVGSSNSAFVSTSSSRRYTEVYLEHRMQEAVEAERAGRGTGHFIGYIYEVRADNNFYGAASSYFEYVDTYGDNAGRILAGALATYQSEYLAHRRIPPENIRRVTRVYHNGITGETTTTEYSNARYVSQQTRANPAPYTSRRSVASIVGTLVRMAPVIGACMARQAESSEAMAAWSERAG

[4] = biological target: T4, PTx-S1-220 E16A (Bordetella pertussis strain Tohama I, UniProt P04977 36-255, E16A)
T4 sequence: T1 sequence with E15A, A38R

[5] = biological target: T5, PTx-S1-220 T156A (Bordetella pertussis strain Tohama I, UniProt P04977 36-255, T156A)
T5 sequence: T1 sequence with A38R, T155A

[6] = biological target: T6, PTx-S1-220 E155A (Bordetella pertussis strain Tohama I, UniProt P04977 36-255, E155A)
T6 sequence: T1 sequence with A38R, E154A

[7] = biological target: T7, PTx-S1-220 R79A (Bordetella pertussis strain Tohama I, UniProt P04977 36-255, R79A)
T7 sequence: T1 sequence with A38R, R78A

[8] = biological target: T8, PTx-S1-220 T159A (Bordetella pertussis strain Tohama I, UniProt P04977 36-255, T159A)
T8 sequence: T1 sequence with A38R, T158A

[9] = biological target: T9, PTx-S1-220 Y148A (Bordetella pertussis strain Tohama I, UniProt P04977 36-255, Y148A)
T9 sequence: T1 sequence with A38R, Y147A

[10] = biological target: T10, PTx-S1-220 Y161A (Bordetella pertussis strain Tohama I, UniProt P04977 36-255, Y161A)
T10 sequence: T1 sequence with A38R, Y160A

B1: monoclonal antibody 1B7 (antibody)
chain: DIQMTQSPALMSASPGEKVTMTCSASSSVSFMYWYQQKPRSSPKPWIYLTSNLPSGVPARFSGSGSGTSYSLTISSMEAEDAATYYCQQWSSHPPTFGSGTKLEIKRGGGGSGGGGSGGGGSGGGGSEVQLQQSGSELVRPGASVKLSCKASGYKFTSYWMHWVKQRPGQGLEWIGNIFPGSGSTNYDEKFNSKATLTVDTSSNTAYMQLSSLTSEDSAVYYCTRWLSGAYFDYWGQGTTLTVSSASGA
notes: also called mAb 1B7; 1B7 mAb
[1]
  koff: 0.003 s⁻¹
[2]
  koff: 0.0013 s⁻¹
[3]
  koff: 0.0011 s⁻¹
[4]
  koff: 0.0016 s⁻¹
[5]
  koff: 0.0011 s⁻¹
[6]
  koff: 0.0011 s⁻¹
[7]
  koff: 0.025 s⁻¹
[8]
  koff: 0.0014 s⁻¹
[9]
  koff: 0.029 s⁻¹
[10]
  koff: 0.0013 s⁻¹
